This note sets out measurements from patent US20230303636A1 (UNIVERSITY COURT OF THE UNIVERSITY OF GLASGOW, published 2023).

For one experiment, the target named is T1, pyocin AP41 (Pseudomonas aeruginosa (gene amplified …)).
T1 chain: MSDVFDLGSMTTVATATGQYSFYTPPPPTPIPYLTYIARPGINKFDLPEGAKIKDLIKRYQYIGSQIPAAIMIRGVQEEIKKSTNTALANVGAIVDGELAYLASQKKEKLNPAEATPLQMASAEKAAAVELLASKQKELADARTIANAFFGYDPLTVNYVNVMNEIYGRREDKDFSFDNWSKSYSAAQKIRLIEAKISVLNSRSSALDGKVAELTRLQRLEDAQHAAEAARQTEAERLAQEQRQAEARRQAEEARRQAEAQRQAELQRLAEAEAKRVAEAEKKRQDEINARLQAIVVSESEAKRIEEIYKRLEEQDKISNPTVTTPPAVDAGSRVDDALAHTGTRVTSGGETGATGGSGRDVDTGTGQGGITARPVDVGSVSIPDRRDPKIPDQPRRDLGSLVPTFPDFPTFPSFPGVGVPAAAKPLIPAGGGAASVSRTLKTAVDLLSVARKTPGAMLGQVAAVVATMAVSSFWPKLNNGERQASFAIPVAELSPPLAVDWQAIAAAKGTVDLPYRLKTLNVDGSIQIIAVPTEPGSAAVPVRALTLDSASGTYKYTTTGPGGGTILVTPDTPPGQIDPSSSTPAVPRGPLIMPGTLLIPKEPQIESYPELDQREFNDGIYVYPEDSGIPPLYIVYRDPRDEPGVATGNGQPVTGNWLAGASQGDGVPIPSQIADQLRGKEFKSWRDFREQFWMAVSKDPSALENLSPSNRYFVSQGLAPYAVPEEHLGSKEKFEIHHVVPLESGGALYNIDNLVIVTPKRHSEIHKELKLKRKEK
Put plainly: co-expression in E. coli; complex purified on a His Trap column and by gel filtration. For orientation: SEC sorts molecules by how far they enter the pores of the column.

A further experiment concerns the target pyocin S2 (Pseudomonas aeruginosa, UniProt Q06584 1-689). Put plainly: purification of the complex, method only by reference.

pyocin S2, sequence (Q06584 whole entry): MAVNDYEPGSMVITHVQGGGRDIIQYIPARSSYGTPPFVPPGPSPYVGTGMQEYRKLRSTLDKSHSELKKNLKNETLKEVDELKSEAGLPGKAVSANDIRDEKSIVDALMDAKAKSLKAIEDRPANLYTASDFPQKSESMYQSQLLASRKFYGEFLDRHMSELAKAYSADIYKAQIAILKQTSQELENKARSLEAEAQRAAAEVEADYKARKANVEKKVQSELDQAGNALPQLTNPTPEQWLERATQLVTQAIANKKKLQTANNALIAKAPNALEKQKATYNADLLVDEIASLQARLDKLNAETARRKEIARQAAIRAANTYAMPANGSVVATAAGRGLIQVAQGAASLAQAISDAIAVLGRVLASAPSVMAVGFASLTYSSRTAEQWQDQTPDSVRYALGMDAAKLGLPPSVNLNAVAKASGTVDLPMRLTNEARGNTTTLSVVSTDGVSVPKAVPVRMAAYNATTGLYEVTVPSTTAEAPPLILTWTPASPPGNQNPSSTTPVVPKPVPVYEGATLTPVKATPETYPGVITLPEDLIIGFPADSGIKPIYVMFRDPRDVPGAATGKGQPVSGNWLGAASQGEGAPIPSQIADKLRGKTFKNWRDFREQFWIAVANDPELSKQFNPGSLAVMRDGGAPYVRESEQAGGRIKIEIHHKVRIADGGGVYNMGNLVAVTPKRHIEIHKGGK

B1: pyocin AP41 immunity protein with C-terminal His6-tag (other)
chain: MDIKNNLSDYTESEFLEIIEEFFKNKSGLKGSELEKRMDKLVKHFEEVTSHPRKSGVIFHPKPGFETPEGIVKEVKEWRAANGLPGFKAG
notes: It is not explicitly tied to the C763 construct; also called ImAP41; not shown: C-terminal His6-tag from pET21a (XhoI site in place of the stop codon)
Take B1: in the experiment with pyocin AP41, the binding result is “binds”.

B2: pyocin S2 immunity protein (other)
chain: MKSKISEYTEKEFLEFVKDIYTNNKKKFPTEESHIQAVLEFKKLTEHPSGSDLLYYPNENREDSPAGVVKEVKEWRASKGLPGFKAG
notes: also called ImS2
B2: the binding result with pyocin S2 is given as “binds”.
